In patent WO2021228904A1 (dated 2021):

Key:
[1] = target: T1, stabilized prefusion SARS-CoV-2 S ectodomain (SARS-CoV-2 (Wuhan-Hu-1), UniProt P0DTC2 15-1138); assay: not named there; ELISA in Example 4
[2] = target: T1, stabilized prefusion SARS-CoV-2 S …; assay: cell-based or functional assay
[3] = target: T1, stabilized prefusion SARS-CoV-2 S …; assay: SPR

B1: SEQ ID NOs: 509/513 (HCVR/LCVR) (antibody, V domains shown)
VH: QVQLQQSGPGLVKPSETLPLTCTVSGGSISSSSYYWGWIRQPPGKGLEWIGSVFYSGSTYYNPSLKSRVTISVDTSKNQLSLKLSSVTAADTAVYYCARQVRQWLEDDAFDIWGQGTMVTVSS
VL: DIQLTQSPSSLSASVGDRVTITCRASQGIRNDLGWYQQKPGKAPKRLIYAASSLQSGVPSRFSGSGSGTEFTLTISSLQPEDFATYYCLQHNSYPLTFGGGTKVDIK
binding result [1]: binds

B2: SEQ ID NOs: 549/553 (HCVR/LCVR) (antibody, V domains shown)
VH: QVQLVQPGAEVKKPGASVKVSCKASGYTFTSYGISWVRQAPGQGLEWMGWISAYNGDTNYAQKLQGRVTMTTDTSTSTAYMELRSLKSDDTAVYYCARFDYGYPYSSWSVLSIDYWGQGTLVTVSS
VL: DIVMTQSPSSLSASVGDRVTITCRASQGIRNDLGWYQQKPGKAPKRLIYAASSLQSGVPSRFSGSGSGTEFTLTISSLQPEDFATYYCLQHNSYPLTFGGGTKLEIK
binding result [1]: binds

B3: COVA1-18 (antibody, V domains shown)
VH: EVQLVESGGGLVQPGGSLRLSCAASGFTVSSNYMSWVRQAPGKGLEWVSVIYSGGSTYYADSVKGRFTISRDNSKNTLYLQMNSLRAEDTAVYYCARVEWAAAGTFYWGQGTLVTVSS
VL: QSALTQEPSLTVSPGGTVTLTCGSSTGAVTSGHYPYWFQQKPGQAPRTLIYDTSNKRSWTPARFSGSLLGGKAALTLSGAQPEDEAEYYCLLSYSGVWVFGGGTKLTVL
IC50, neutralization of live SARS-CoV-2 virus [2]: 0.067 nM
Kd [3]: ≤ 1 nM

B4: SEQ ID NOs: 65/69 (HCVR/LCVR) (antibody, V domains shown)
VH: QLQLVESGPGLVKPSETLSLTCTVSGGSISSYFWSWIRQPPGKGLEWIGYIYYSGSTNYNPSLKSRVTISVDTSKNQFSLKLSSVTAADTAVYYCARHSQGWLQQAVAFDIWGQGTMVTVSS
VL: not shown
binding result [1]: binds

B5: SEQ ID NOs: 57/61 (HCVR/LCVR) (antibody, V domains shown)
VH: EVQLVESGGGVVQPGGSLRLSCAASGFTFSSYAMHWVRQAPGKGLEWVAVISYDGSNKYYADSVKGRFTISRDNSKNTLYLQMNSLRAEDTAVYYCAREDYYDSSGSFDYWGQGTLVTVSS
VL: QSVLTQPASVSGSPGQSITISCTGTSSDVGGYNYVSWYQQHPGKAPKLMIYDVSNRPSGVSNRFSGSKSGNTASLTISGLQAEDEADYYCSSYTSSSTRHWVFGGGTKLTVL
binding result [1]: binds

B6: SEQ ID NOs: 525/529 (HCVR/LCVR) (antibody, V domains shown)
VH: QVQLQESGPGLVKPSGTLSLTCAVSGGSISSSNWWSWVRQPPGKGLEWIGEIYHSGSSNYNPSLKSRVTISVDKSKNQFSLKLNSVTAADTAVYYCAGRYCSGGRCGWFDPWGQGTLVTVSS
VL: QSVLTQPASVSGSPGQSITISCTGTSSDVGSYNLVSWYQQHPGKAPKLMIYEASKRPSGISNRFSGSKSGNTASLTISGLQAEDEADYYCCSYAGSSTWVFGGGTKPTVL
binding result [1]: binds

B7: SEQ ID NOs: 581/585 (HCVR/LCVR) (antibody, V domains shown)
VH: EVQLVESGGGLVQPGRSLRLSCAASGFTFDDYAMHWVRQAPGKGLEWVSGISWNSGSIGYADSVKGRFTISRDSAKNSLYLQMNSLRAEDTALYYCAKVATYYYDRSGYYYGGALDYWGQGTLVTVSS
VL: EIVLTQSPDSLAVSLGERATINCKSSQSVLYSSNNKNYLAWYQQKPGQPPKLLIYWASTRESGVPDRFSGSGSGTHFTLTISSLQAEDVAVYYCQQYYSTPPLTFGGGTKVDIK
binding result [1]: binds

B8: SEQ ID NOs: 637/641 (HCVR/LCVR) (antibody, V domains shown)
VH: QVQLVESGGGLVQPGRSLRLSCAASGFTFDDYAMHWVRQAPGKGLEWVSGISWNSGSIGYADSVKGRFTISRDNAKNSLYLQMNSLRAEDTALYYCAKAEPEVGGYDYYMDVWGKGTMVTVSS
VL: not shown
binding result [1]: binds

B9: 001_P1G11 (antibody, V domains shown)
VH: EVQLVQSGTEVKKPGASVKVSCKASGYTFPGYYIHWVRQAPGQGLEWMGWINPNSGVAKSAQKFQGRVTMTRDSSISTVYLDVTSDDTAVYYCARDLVWATVSGTMDVWGQGTTVTVSS
VL: QSALTQPPSASGSPGQSVTISCTGTSSDIGTYNYVSWYQQHPGKAPKLMIYEVTKRPSGVPDRFSGSKSGNTASLTVSGLQADDEGDYYCSSYVGNNNWVFGGGTKLTVL
binding result [1]: binds

B10: SEQ ID NOs: 661/665 (HCVR/LCVR) (antibody, V domains shown)
VH: EVQLVESRAEMKKPGESLKISCKGSGYTFTNHWIAWVRQMPGKGLEWMGIIYPGDSDTRYSPSFEGQVTISADKSISTAYLQWSSLKASDTAMYYCARRGYTYGADFYGLDVWGQGTRVTVSS
VL: not shown
binding result [1]: binds

B11: SEQ ID NOs: 353/357 (HCVR/LCVR) (antibody, V domains shown)
VH: EVQLVQSGAEVKKPGSSVKVSCKASGGTFSSYAISWVRQAPGQGLEWMGGIIPIFGTTNYAQKFQGRVTITTDESTSTAYMELSSLRSEDTAVYYCARVYSYDSSGYYLEYWGQGTRVTVSS
VL: EIVLTQSPATLSLSPGERATLSCRASQSVSSYLAWYQQKPGQAPRLLIYDASNRATGIPARFSGSGSGTDFTLTISSLEPEDFAVYYCQQRSNWPPSITFGQGTRLEIK
binding result [1]: binds

B12: SEQ ID NOs: 461/465 (HCVR/LCVR) (antibody, V domains shown)
VH: EVQLVESGAEVKKPGSSVKVSCKASGGTFSSYAISWVRQAPGQGLEWMGGIIPIFGTANYAQKFQGRATITTDESTSTAYMELSSLGSEDTAVYYCARTHSYDNSGQYFDYWGQGTMVTVSS
VL: DIVMTQSPATLSLSPGERATLSCRASQSVSSFLAWYQQKPGQAPRLLIYDASNRATGIPARFSGSGSGTDFTLTISSLEPEDFAVYYCQQRSNWPPRLTFGGGTKVDIK
binding result [1]: binds

B13: SEQ ID NOs: 621/625 (HCVR/LCVR) (antibody, V domains shown)
VH: QVQLVQSGAEVKKPGASVKVSCKVSGYTLTELSMHWVRQAPGKGLEWMGGFDPEDGETIYAQKFQGRVTMTEDTSTDTAYMELSSLRSEDTAVYYCATAYSVDTAMVRGVGYWGQGTLVTVSS
VL: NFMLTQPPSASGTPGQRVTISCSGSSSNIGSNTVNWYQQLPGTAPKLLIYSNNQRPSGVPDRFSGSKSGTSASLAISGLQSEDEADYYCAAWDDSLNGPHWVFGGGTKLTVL
binding result [1]: binds

B14: SEQ ID NOs: 477/481 (HCVR/LCVR) (antibody, V domains shown)
VH: QVQLVESGGGVVQPGRSLRLSCAASGFTFSSYAMHWVRQAPGKGLEWVAVISYDGSNKYYADSVKGRFTISRDNSKNTLYLQMNSLRAEDTAVYYCARSASGSYYGAFDYWGQGTLVTVSS
VL: QTVVTQPASVSGSPGQSITISCTGTSSDVGGYNYVSWYQQHPGKAPKLMIYDVSNRPSGVSNRFSGSKSGNTASLTISGLQAEDEADYYCSSYTSSSTLGLYVFGTGTKVTVL
binding result [1]: binds

B15: SEQ ID NOs: 305/309 (HCVR/LCVR) (antibody, V domains shown)
VH: EVQLVESGGGLVKPGGSLRLSCAASGFTFGSYSMSWVRQAPGKGLEWVSSISRSSSYIYNADSVRGRLTISRDNAKNSLYLQMNSLRVEDTAVYYCARDQPLPDILTGYYTGPLDYWGQGTLVTVSS
VL: not shown
binding result [1]: binds

B16: 002_P2C4 (antibody, V domains shown)
VH: QVQLVESGAEVKKPGSSVKVSCKASGGTFSSYGINWVRQAPGQGLEWMGGIIPIFGTANYAQKFQGRVTITTDESTSTAYMELSSLRSEDTAVYYCASFGDDSGDEGVRWGQGTLVTVSS
VL: EIVMTQSPATLSLSPGERATLSCRASQSVSSYLAWYQQKPGQAPRLLIYDASNRATGIPARFSGSGSGTDFTLTISSLEPEDFAVYYCQQRSNWPPYTFGQGTKVEIK
binding result [1]: binds

B17: SEQ ID NOs: 421/425 (HCVR/LCVR) (antibody, V domains shown)
VH: EVQLVQSGAEVKKPGASVKVSCKASGYTFTSYDINWVRQATGQGLEWMGWMNPNSGNTGYAQKFQGRVTMTRNTSISTAYMELSSLRSEDTAVYYCARVVGSSWYPVDAFDIWGQGTRVTVSS
VL: QSVLTQPASVSGSPGQSITISCTGTSSDVGGYNYVSWYQQHPGKAPKLMIYDVSNRPSGVSNRFSGSKSGNTASLTISGLQAEDEADYYCSSYTSSSTLVVFGGGTKLTVL
binding result [1]: binds

B18: SEQ ID NOs: 41/45 (HCVR/LCVR) (antibody, V domains shown)
V domain 1: EVQLVQSGGGLVQPGRSLRLSCAASGFTFGEYAMHWVRQAPGKGLEWVSGISWNSGSIDYADSVKGRFTISRDNAKNSLYLQMNSLRAEDTALYYCAKDMGEAVAGTHYGMDVWGQGTMVTASS
V domain 2: QSALTQPPSVSVSPGQTASIPCSGDKLGDIYACWYQQKPGQSPVLVIYQDTKRPSGIPERFSGSNSGNTATLTISGTQAMDEADYYCQAWGSTTAKVFGGGTKLTVP
binding result [1]: binds

B19: SEQ ID NOs: 557/561 (HCVR/LCVR) (antibody, V domains shown)
VH: EVQLVESGGGVVQPGRSLRLSCAASGFTFSSYAMHWVRQAPGKGLEWVAVISYDGSYKYYADSVKGRFTISRDNSKNTLYLQMNSLTAEDTAVYYCAREGSRQWLVIYFDYWGQGTLVTVSS
VL: AIRMTQSPSSLSASVGDRVTITCRASQSISSYLNWYQQKPGKAPKLLIYAASSLQSGVPSRFSGSGSGTDFTLTISSLQPEDFATYYCQQSYTTFIYTFGQGTKLEIK
binding result [1]: binds

B20: SEQ ID NOs: 653/657 (HCVR/LCVR) (antibody, V domains shown)
VH: EVQLVESGGGLVQPGRSLRLSCAASGFTFDDYAMHWVRQAPGKGLEWVSGISWNSGSIGYADSVKGRFTISRDNAKNSLYLQMNSLRAEDTALYYCAKMGPDPAHDYGRKNDAFDIWGQGTMVTVSS
VL: DIVMTQSPSSLSASVGDRVTITCRASQSMSSYLNWYQQKPGKAPKLLIYAASSLQSGVPSRFSGSGSGTDFTLTISSLQPEDFATYYCQQSYSTLTFGGGTKLEIK
binding result [1]: binds

B21: SEQ ID NOs: 405/409 (HCVR/LCVR) (antibody, V domains shown)
VH: EVQLVESGAEVKKPGASVKVSCKVSGYTLPELSMHWVRQTPGKGLEWMGGFDPEDGETIYAQKFQGRVTMTEDTSTDTAYMELSSLRSEDTAVYYCATGPTIAAAATNWFDPGGQGTLVTVSS
VL: QPVLTQPASVSGSPGQSITISCTGTSSDVGGYNYVSWYQQHPGKAPKLMIYDVSNRPSGVSNRFSGSRSGDTASLTISGLQAEDEADYYCSSYTSSSTWVFGGGTKLTVL
Kd [3]: ≤ 1 nM

B22: SEQ ID NOs: 605/609 (HCVR/LCVR) (antibody, V domains shown)
VH: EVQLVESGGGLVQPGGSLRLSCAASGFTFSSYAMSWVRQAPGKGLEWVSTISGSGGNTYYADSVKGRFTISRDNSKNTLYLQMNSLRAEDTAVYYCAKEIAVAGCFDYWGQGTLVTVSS
VL: QTVVTQPPSVSVSPGQTARITCSGDALPKQYAYWYQQKPGQAPVLVIYKDSERPSGIPERFSGSSSGTTVTLTISGVQAEDEADYYCQSADSSGTYRVFGGGTKLTVL
binding result [1]: binds
